Consider 83 variants from the RNAGym collection of RNA variant scans (doi:10.1073/pnas.2313332121).

B1: TPR 5TU (parent)
chain: GGAUCUUCUCGAUCUAACAAAAAAGACAAAUCUGCCACAAAGCUUGAGAGCAUCUUCGGAUGCAGAGGCGGCAGCCUUCGGUGGCGCGAUAGCGCCAACGUUCUCAACUAUGACACGCAAAACGCGUGCUCCGUUGAAUGGAGUUUAUCAUG

Fewer inactive variants are shown than the library holds. A value given as a limit tells only on which side of the number the result lay.

The data set covers variants of B1. Description: polymerase ribozyme fitness, log enrichment relative to wild type (log ratio); higher = more active; in vitro selection for triplet polymerase activity. Put shortly: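 For each subunit of a heterodimeric triplet polymerase ribozyme, a mutant library was built by PCR and transcribed, then taken through a single in vitro selection round in triplicate. Selection involved annealing to a biotinylated primer, the partner subunit and triplets, incubation frozen at −7 °C, gel excision of extended constructs, capture on streptavidin beads and RT-PCR. Genotypes were retained after Illumina sequencing of inputs and outputs only with ≥10 input reads and ≥1 read in each output. Fitness is defined as the logarithm of a genotype's enrichment relative to wild-type enrichment, using inverse-variance-weighted averages across replicates, with the logarithm taken to base 2.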
For the variant U45G G50C C57A G59A C75U G94C A106U A107U, the “polymerase ribozyme fitness (log ratio)” value is at most -4.2.
For the variant C10U A17G A26U G46C U55A C85U A106U G126A G133C, the “polymerase ribozyme fitness (log ratio)” value is at most -4.2.
Under U7A U9G stands -3.64.
The same measure for C43G: -4.17; for C69A C95A C96G G152U: -3.59; for A16G: -0.642.
The same measure for G74C C93U G143U: at most -4.2; for A73G C87U G92U A122U C131A: -4.1.
Take G84U A91G: the “polymerase ribozyme fitness (log ratio)” value is -2.81.
Under C38G C85G stands -2.66; under A91C A98U C116A A121G U130G, at most -4.2.
The same measure for G59A C63G C69G C93U: -2.27; for G92A C103U C116U A121G: -3.47.
A22G U44A U53C G67C C99G G126A U134C: the “polymerase ribozyme fitness (log ratio)” value is at most -4.2.
The same measure for G34A C36U A60C G71A G84A: at most -4.2; for A73U G83U G84U A97C G100U C105A: at most -4.2; for U45A C87U C132G U139C G143A U145G: at most -4.2.
Under U31C G48C G94C A106U stands at most -4.2; under C38U U44C C54U G94A C131U U139A U144C, at most -4.2.
The same measure for C38A C85U C87U C116A: -0.329.
Turning to C35G A41U G136U G141A, the “polymerase ribozyme fitness (log ratio)” value was at most -4.2.
Regarding A60C C85A, the “polymerase ribozyme fitness (log ratio)” value was -2.62.
Turning to C87U A113U A122G G136U U144C, the “polymerase ribozyme fitness (log ratio)” value is -3.67.
The same measure for U44A A47C C57U G128C: at most -4.2; for C5A A24C G80C C149G: at most -4.2.
Consider U33G C76U A97U A119C, for which the “polymerase ribozyme fitness (log ratio)” value is at most -4.2.
The same measure for G80C C85A G94C C132U G141U U148C: at most -4.2; for U53A G141A: -1.9; for A52C G83U U145A: -1.8.
In the case of G84A C108U, the “polymerase ribozyme fitness (log ratio)” value was -2.74.
Under C5A U13G C27A C36A C51U C87A stands at most -4.2; under U9G U56G G84U C87A U90G U109G U130C U139A, at most -4.2.
With U55G C96A U109G G143A, the “polymerase ribozyme fitness (log ratio)” value was -3.3.
Under G42C C87U A113C C118G G141C stands at most -4.2.
The same measure for A3C U31G C57G: -1.39.
The same measure for G83A A121G U145G U148G: at most -4.2.
For A73U C75A A98U C114U C125A U135A, the “polymerase ribozyme fitness (log ratio)” value is at most -4.2.
On to U55A C85G C125U U144A, for which the “polymerase ribozyme fitness (log ratio)” value is -3.47.
The same measure for A39C G86A G152U: at most -4.2; for C10U A21U C54A U55A C95U U102G A106C G141C: at most -4.2.
Under G83C G86A C95A A120C stands at most -4.2; under U55A U109G, -1.03; under A17G A19C U55G C87U C93U C108U G141U, at most -4.2.
As to A22U A24G C43U C57G G59A A89G G92C U135A, the “polymerase ribozyme fitness (log ratio)” value is at most -4.2.
Under A23G U134A stands at most -4.2; under G88A C96U C108G, at most -4.2; under A37C G58A, 0.575.
Under A12U A47U C95U A115G stands -2.31.
Under C10G U55A U148A A150C stands at most -4.2; under A91G A147U, -1.52.
A89G A142C: the “polymerase ribozyme fitness (log ratio)” value is -1.45.
The same measure for A20G G126A G136A: 0.15; for A37G G92U: -2.01; for A16U A19C C85U: -2.05.
Take C54U C123U G124A U144C: the “polymerase ribozyme fitness (log ratio)” value was -0.47.
The same measure for G46C C85U: -1.16; for C18G A21U C35U C95U: -1.12; for A16U U53A C57A C95A: -2.57.
For A26G G48C A49G A73G C76U G83C G92U U148C, the “polymerase ribozyme fitness (log ratio)” value is at most -4.2.
The same measure for U55A A98U U135A: -1.42; for A26C C85G C118A: -3.99.
The same measure for C95U A122C U130G U139A: -4.01.
Under A47G U145G stands -0.0566; under A3C C5A G11A U45A U55A G80A C96A, at most -4.2; under C27G G152A, at most -4.2.
Take A41G G58A U82G U144A U145C: the “polymerase ribozyme fitness (log ratio)” value was 0.156.
The same measure for A26U U53A C76A G124U U145C: at most -4.2; for U77A C132U: at most -4.2.
The same measure for A20U A22U G67C C79U C99G C118U: at most -4.2.
Take A28C C38A G48C A73G U144C: the “polymerase ribozyme fitness (log ratio)” value is at most -4.2.
Take A52G C87U C116U C149G: the “polymerase ribozyme fitness (log ratio)” value was -3.76.
On to A49U U56A C75U C108A U111G U146G, for which the “polymerase ribozyme fitness (log ratio)” value is at most -4.2.
Under A23U G42A C51U G71A G94A U101G stands at most -4.2; under A16G G48C A52G, -1.13; under U55A C63U C85U C103A G136A A147U, -0.434.
The same measure for U44A A47C A52G C79U C85U C118U: at most -4.2; for U33C U82A: -2.77; for A20U A30C G70A: at most -4.2.
Under A21C A47C A60G C93A stands -1.98.
With C36A C116A, the “polymerase ribozyme fitness (log ratio)” value is -3.76.
The same measure for C43U C99G: at most -4.2.
Under C10U A21G G48A G83C G94U U144A stands at most -4.2.
On to A24C U31C G68U U78C C85U, for which the “polymerase ribozyme fitness (log ratio)” value was at most -4.2.
